The text below walks through data of paper PMC11629065.

The target in assay [1] is IL1RL1 with the extracellular risk allele (rs1041973 [C]) and the protective TIR signalling domain haplotype (rs10192157 [T]) (human) (UniProt Q01638).
In assay [2] the target is IL1RL1 with the extracellular risk allele (rs1041973 [C]) and the TIR signalling domain risk haplotype (rs10192157 [C]) (human) (UniProt Q01638).
The target is the same in assay [3]. This is another data set of the same source.

“IL33 Exon 3,4 deletion variant (IL33_(Δ3,4)) (ligand)” registered an SEAP EC50 Risk:Prot (NF-κB SEAP reporter, transfected HEK293) in assay [1] of 0.0466 nM. In addition, in assay [2], the IL8 EC50 (IL8 ELISA of supernatant, transfected HEK293, risk:risk haplotype) was 1.5 nM; the IL8 in supernatant (ELISA) of HEK293 reporter cells transfected with IL1RL1, IL33 0.0001-50 ng/mL, 24 h; IL8 ELISA maximum amounted to 28.1 pg/µL; the SEAP EC50 Risk:Risk (NF-κB SEAP reporter, transfected HEK293) was 0.0221 nM; the SEAP activity (NF-κB reporter) in supernatant of HEK293 reporter cells transfected with IL1RL1, IL33 0.0001-50 ng/mL, 24 h; SEAP maximum (OD) worked out at 2.47 OD. The IL8 in supernatant (ELISA) of HEK293 reporter cells transfected with IL1RL1; maximum as told in the text (differs from the table's cell) in assay [3] came to 28.1 pg/mL.

B1: IL33_(95–270) (ligand)
chain: AFGISGVQKYTRALHDSSITGISPITEYLASLSTYNDQSITFALEDESYEIYVEDLKKDEKKDKVLLSYYESQHPSNESGDGVDGKMLMVTLSPTKDFWLHANNKEHSVELHKCEKPLPDQAFFVLHNMHSNCVSFECKTDPGVFIGVKDNHLALIKVDSSENLCTENILFKLSET
On to B1, for which the SEAP EC50 Risk:Prot (NF-κB SEAP reporter, transfected HEK293) in assay [1] was 0.0427 nM. For the same molecule, in assay [2], the IL8 EC50 (IL8 ELISA of supernatant, transfected HEK293, risk:risk haplotype) came out at 0.00074 nM; the IL8 in supernatant (ELISA) of HEK293 reporter cells transfected with IL1RL1, IL33 0.0001-50 ng/mL, 24 h; IL8 ELISA maximum is 49.7 pg/µL; the SEAP EC50 Risk:Risk (NF-κB SEAP reporter, transfected HEK293) amounted to 0.00699 nM; the SEAP activity (NF-κB reporter) in supernatant of HEK293 reporter cells transfected with IL1RL1, IL33 0.0001-50 ng/mL, 24 h; SEAP maximum (OD) was found to be 3.79 OD.

B2: IL33_(112–270) (ABNOVA) (ligand)
chain: SITGISPITEYLASLSTYNDQSITFALEDESYEIYVEDLKKDEKKDKVLLSYYESQHPSNESGDGVDGKMLMVTLSPTKDFWLHANNKEHSVELHKCEKPLPDQAFFVLHNMHSNCVSFECKTDPGVFIGVKDNHLALIKVDSSENLCTENILFKLSET
B2: the SEAP EC50 Risk:Prot (NF-κB SEAP reporter, transfected HEK293) in assay [1] stood at 0.2 nM. In addition, in assay [2], the IL8 EC50 (IL8 ELISA of supernatant, transfected HEK293, risk:risk haplotype) is 0.0698 nM; the IL8 in supernatant (ELISA) of HEK293 reporter cells transfected with IL1RL1, IL33 0.0001-50 ng/mL, 24 h; IL8 ELISA maximum amounted to 24.6 pg/µL; the SEAP EC50 Risk:Risk (NF-κB SEAP reporter, transfected HEK293) came out at 0.0462 nM; the SEAP activity (NF-κB reporter) in supernatant of HEK293 reporter cells transfected with IL1RL1, IL33 0.0001-50 ng/mL, 24 h; SEAP maximum (OD) was found to be 3.28 OD.

B3: IL33_(113–270) (ligand)
chain: ITGISPITEYLASLSTYNDQSITFALEDESYEIYVEDLKKDEKKDKVLLSYYESQHPSNESGDGVDGKMLMVTLSPTKDFWLHANNKEHSVELHKCEKPLPDQAFFVLHNMHSNCVSFECKTDPGVFIGVKDNHLALIKVDSSENLCTENILFKLSET
Regarding B3, the SEAP EC50 Risk:Prot (NF-κB SEAP reporter, transfected HEK293) in assay [1] was 0.189 nM. In assay [2], the IL8 EC50 (IL8 ELISA of supernatant, transfected HEK293, risk:risk haplotype) was determined as 1.58 nM; the IL8 in supernatant (ELISA) of HEK293 reporter cells transfected with IL1RL1, IL33 0.0001-50 ng/mL, 24 h; IL8 ELISA maximum stood at 37.8 pg/µL; the SEAP EC50 Risk:Risk (NF-κB SEAP reporter, transfected HEK293) came to 0.0135 nM; the SEAP activity (NF-κB reporter) in supernatant of HEK293 reporter cells transfected with IL1RL1, IL33 0.0001-50 ng/mL, 24 h; SEAP maximum (OD) came out at 2.6 OD.

B4: IL33_(109–270) (ligand)
chain: HDSSITGISPITEYLASLSTYNDQSITFALEDESYEIYVEDLKKDEKKDKVLLSYYESQHPSNESGDGVDGKMLMVTLSPTKDFWLHANNKEHSVELHKCEKPLPDQAFFVLHNMHSNCVSFECKTDPGVFIGVKDNHLALIKVDSSENLCTENILFKLSET
On to B4, for which, in assay [1], the SEAP EC50 Risk:Prot (NF-κB SEAP reporter, transfected HEK293) turned out to be 0.0712 nM. In assay [2], this molecule displayed an IL8 EC50 (IL8 ELISA of supernatant, transfected HEK293, risk:risk haplotype) of 0.00117 nM; an IL8 in supernatant (ELISA) of HEK293 reporter cells transfected with IL1RL1, IL33 0.0001-50 ng/mL, 24 h; IL8 ELISA maximum of 24.6 pg/µL; an SEAP EC50 Risk:Risk (NF-κB SEAP reporter, transfected HEK293) of 0.0147 nM; an SEAP activity (NF-κB reporter) in supernatant of HEK293 reporter cells transfected with IL1RL1, IL33 0.0001-50 ng/mL, 24 h; SEAP maximum (OD) of 3.07 OD.

B5: IL33_(99–270) (ligand)
chain: SGVQKYTRALHDSSITGISPITEYLASLSTYNDQSITFALEDESYEIYVEDLKKDEKKDKVLLSYYESQHPSNESGDGVDGKMLMVTLSPTKDFWLHANNKEHSVELHKCEKPLPDQAFFVLHNMHSNCVSFECKTDPGVFIGVKDNHLALIKVDSSENLCTENILFKLSET
In assay [1], B5 yielded an SEAP EC50 Risk:Prot (NF-κB SEAP reporter, transfected HEK293) of 0.0906 nM. Moreover, in assay [2], the IL8 EC50 (IL8 ELISA of supernatant, transfected HEK293, risk:risk haplotype) was found to be 29 nM; the IL8 in supernatant (ELISA) of HEK293 reporter cells transfected with IL1RL1, IL33 0.0001-50 ng/mL, 24 h; IL8 ELISA maximum was 42.9 pg/µL; the SEAP EC50 Risk:Risk (NF-κB SEAP reporter, transfected HEK293) stood at 0.0292 nM; the SEAP activity (NF-κB reporter) in supernatant of HEK293 reporter cells transfected with IL1RL1, IL33 0.0001-50 ng/mL, 24 h; SEAP maximum (OD) was determined as 3.58 OD.
